{"source": "IntAct's records for PubMed 26342861", "parents": {"B1": {"name": "Wnt inhibitory factor 1 (Homo sapiens), Q9Y5W5 (parent)", "chain": "MARRSAFPAAALWLWSILLCLLALRAEAGPPQEESLYLWIDAHQARVLIGFEEDILIVSEGKMAPFTHDFRKAQQRMPAIPVNIHSMNFTWQAAGQAEYFYEFLSLRSLDKGIMADPTVNVPLLGTVPHKASVVQVGFPCLGKQDGVAAFEVDVIVMNSEGNTILQTPQNAIFFKTCQQAECPGGCRNGGFCNERRICECPDGFHGPHCEKALCTPRCMNGGLCVTPGFCICPPGFYGVNCDKANCSTTCFNGGTCFYPGKCICPPGLEGEQCEISKCPQPCRNGGKCIGKSKCKCSKGYQGDLCSKPVCEPGCGAHGTCHEPNKCQCQEGWHGRHCNKRYEASLIHALRPAGAQLRQHTPSLKKAEERRDPPESNYIW", "partner": "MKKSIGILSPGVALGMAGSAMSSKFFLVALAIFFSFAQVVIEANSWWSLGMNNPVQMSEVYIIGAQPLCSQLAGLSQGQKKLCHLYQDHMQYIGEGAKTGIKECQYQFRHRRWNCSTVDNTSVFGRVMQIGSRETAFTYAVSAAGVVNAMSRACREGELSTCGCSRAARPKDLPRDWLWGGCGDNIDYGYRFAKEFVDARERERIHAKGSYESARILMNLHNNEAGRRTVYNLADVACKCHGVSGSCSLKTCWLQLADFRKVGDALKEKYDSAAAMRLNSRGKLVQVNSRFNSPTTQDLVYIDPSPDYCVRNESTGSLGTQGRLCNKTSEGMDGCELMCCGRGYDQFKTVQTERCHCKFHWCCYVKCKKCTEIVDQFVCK"}, "B2": {"name": "Wnt inhibitory factor 1 (Homo sapiens), Q9Y5W5 (parent)", "chain": "B1 chain", "partner": "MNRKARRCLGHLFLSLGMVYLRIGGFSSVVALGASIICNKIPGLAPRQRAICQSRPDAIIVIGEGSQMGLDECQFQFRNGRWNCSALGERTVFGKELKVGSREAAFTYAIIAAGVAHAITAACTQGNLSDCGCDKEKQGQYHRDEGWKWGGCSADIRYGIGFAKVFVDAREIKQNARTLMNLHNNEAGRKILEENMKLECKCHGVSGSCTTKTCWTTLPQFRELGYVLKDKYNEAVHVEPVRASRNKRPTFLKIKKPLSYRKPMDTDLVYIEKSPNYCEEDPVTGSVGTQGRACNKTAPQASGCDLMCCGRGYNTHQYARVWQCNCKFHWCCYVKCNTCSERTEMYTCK"}}, "data": [{"variants_of": "B1", "settings": "with wnt5a_human WNT5A", "values": [{"variant": "MARRSAFPAAALWLWSILLCLLALRAEAGPPQEESLYLWIDAHQARVLIGFEEDILIVSEGKMAPFTHDFRKAQQRMPAIPVNIHSMNFTWQAAGQAEYFYEFLSLRSLDKGIMADPTVNVPLLGTVPHKASVVQVGFPCLGKQDGVAAFEVDVRVMNSEGNTILQTPQNAIFFKTCQQAECPGGCRNGGFCNERRICECPDGFHGPHCEKALCTPRCMNGGLCVTPGFCICPPGFYGVNCDKANCSTTCFNGGTCFYPGKCICPPGLEGEQCEISKCPQPCRNGGKCIGKSKCKCSKGYQGDLCSKPVCEPGCGAHGTCHEPNKCQCQEGWHGRHCNKRYEASLIHALRPAGAQLRQHTPSLKKAEERRDPPESNYIW", "note": "[I155R]", "effect of a mutation on the interaction": "disrupting interaction"}]}, {"variants_of": "B1", "settings": "with wnt5a_human WNT5A", "remark": "another data set of the same source", "values": [{"variant": "MARRSAFPAAALWLWSILLCLLALRAEAGPPQEESLYLWIDAHQARVLIGFEEDILIVSEGKMAPFTHDFRKAQQRMPAIPVNIHSMNFTWQAAGQAEYFYEFLSLRSLDKGIMADPTVNVPLLGTVPHKASVVQVGFPCLGKQDGVAAFEVDVRVMNSEGNTILQTPQNAIFFKTCQQAECPGGCRNGGFCNERRICECPDGFHGPHCEKALCTPRCMNGGLCVTPGFCICPPGFYGVNCDKANCSTTCFNGGTCFYPGKCICPPGLEGEQCEISKCPQPCRNGGKCIGKSKCKCSKGYQGDLCSKPVCEPGCGAHGTCHEPNKCQCQEGWHGRHCNKRYEASLIHALRPAGAQLRQHTPSLKKAEERRDPPESNYIW", "note": "[I155R]", "effect of a mutation on the interaction": "decreasing interaction"}]}, {"variants_of": "B2", "settings": "with wnt7a_human WNT7A", "values": [{"variant": "MARRSAFPAAALWLWSILLCLLALRAEAGPPQEESLYLWIDAHQARVLIGFEEDILIVSEGKMAPFTHDFRKAQQRMPAIPVNIHSMNFTWQAAGQAEYFYEFLSLRSLDKGIMADPTVNVPRLGTVPHKASVVQVGFPCLGKQDGVAAFEVDVIVMNSEGNTILQTPQNAIFFKTCQQAECPGGCRNGGFCNERRICECPDGFHGPHCEKALCTPRCMNGGLCVTPGFCICPPGFYGVNCDKANCSTTCFNGGTCFYPGKCICPPGLEGEQCEISKCPQPCRNGGKCIGKSKCKCSKGYQGDLCSKPVCEPGCGAHGTCHEPNKCQCQEGWHGRHCNKRYEASLIHALRPAGAQLRQHTPSLKKAEERRDPPESNYIW", "note": "[L123R]", "effect of a mutation on the interaction": "decreasing interaction"}, {"variant": "MARRSAFPAAALWLWSILLCLLALRAEAGPPQEESLYLWIDAHQARVLIGFEEDILIVSEGKMAPFTHDFRKAQQRMPAIPVNIHSMNFTWQAAGQAEYFYEFLSLRSLDKGIMADPTVNVPLLGTVPHKASVVQVGFPCLGKQDGVAAFEVDVRVMNSEGNTILQTPQNAIFFKTCQQAECPGGCRNGGFCNERRICECPDGFHGPHCEKALCTPRCMNGGLCVTPGFCICPPGFYGVNCDKANCSTTCFNGGTCFYPGKCICPPGLEGEQCEISKCPQPCRNGGKCIGKSKCKCSKGYQGDLCSKPVCEPGCGAHGTCHEPNKCQCQEGWHGRHCNKRYEASLIHALRPAGAQLRQHTPSLKKAEERRDPPESNYIW", "note": "[I155R]", "effect of a mutation on the interaction": "decreasing interaction"}, {"variant": "MARRSAFPAAALWLWSILLCLLALRAEAGPPQEESLYLWIDAHQARVLIGFEEDILIVSEGKMAPFTHDFRKAQQRMPAIPVNIHSMNFTWQAAGQAEYFYEFLSLRSLDKGIMADPTVNVPLLGTVPHKASVVQVGFPCLGKQDGVAAFEVDVIVMNSEGNTILQTPQNARFFKTCQQAECPGGCRNGGFCNERRICECPDGFHGPHCEKALCTPRCMNGGLCVTPGFCICPPGFYGVNCDKANCSTTCFNGGTCFYPGKCICPPGLEGEQCEISKCPQPCRNGGKCIGKSKCKCSKGYQGDLCSKPVCEPGCGAHGTCHEPNKCQCQEGWHGRHCNKRYEASLIHALRPAGAQLRQHTPSLKKAEERRDPPESNYIW", "note": "[I172R]", "effect of a mutation on the interaction": "decreasing interaction"}]}, {"variants_of": "B2", "settings": "with wnt7a_human WNT7A", "remark": "another data set of the same source", "values": [{"variant": "MARRSAFPAAALWLWSILLCLLALRAEAGPPQEESLYLWIDAHQARVLIGFEEDILIVSEGKMAPFTHDFRKAQQRMPAIPVNIHSMNFTWQAAGQAEYFYEFLSLRSLDKGIMADPTVNVPLLGTVPHKASVVQVGFPCLGKQDGVAAFEVDVRVMNSEGNTILQTPQNAIFFKTCQQAECPGGCRNGGFCNERRICECPDGFHGPHCEKALCTPRCMNGGLCVTPGFCICPPGFYGVNCDKANCSTTCFNGGTCFYPGKCICPPGLEGEQCEISKCPQPCRNGGKCIGKSKCKCSKGYQGDLCSKPVCEPGCGAHGTCHEPNKCQCQEGWHGRHCNKRYEASLIHALRPAGAQLRQHTPSLKKAEERRDPPESNYIW", "note": "[I155R]", "effect of a mutation on the interaction": "increasing interaction"}]}]}
